Measured values reported in PMC9316817, “Brain Delivery of IGF1R5, a Single-Domain Antibody Targeting Insulin-like Growth Factor-1 Receptor” (Pharmaceutics, 2022).

Columns and labels:
Human IGF1R ectodomain [1] = target: Human IGF1R ectodomain (UniProt P08069); experiment: SPR; acidic pH: HBS-EP MES buffer pH 5.6, 37 °C; IGF1R ectodomains amine coupled on CM5 chips; VHHs in flow, 0.25-10 nM (IGF1R5), 1-50 nM (IGF1R5-H2); 1:1 binding model
[2] = target: mouse IGF1R ectodomain (mouse) (UniProt Q60751); experiment: as above
Chain of mouse IGF1R ectodomain (mouse) (Q60751 742-936): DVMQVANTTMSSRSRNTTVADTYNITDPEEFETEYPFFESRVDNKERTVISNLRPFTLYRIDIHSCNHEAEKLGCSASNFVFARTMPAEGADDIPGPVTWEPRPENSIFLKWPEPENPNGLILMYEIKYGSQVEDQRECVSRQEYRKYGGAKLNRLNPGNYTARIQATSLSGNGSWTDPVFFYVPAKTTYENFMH

Human IGF1R ectodomain [3] = target: Human IGF1R ectodomain (UniProt P08069); experiment: SPR; Biacore 3000, multi-cycle kinetics; IGF1R ectodomains amine coupled on CM5 chips (about 1500-2000 RU); VHHs in flow at 20 µL/min, 300 s association, 300 s dissociation; 0.25-10 nM (IGF1R5), 1-25 nM (IGF1R5-H2); HBS-EP pH 7.4, 25 °C; 1:1 binding model
[4] = target: mouse IGF1R ectodomain (mouse) (UniProt Q60751); experiment: as above
[5] = target: T1, rhesus IGF1R ectodomain (aa31-932) (Macaca mulatta, UniProt I2CWY3); experiment: SPR; Biacore T200, single-cycle kinetics (rhesus IGF1R); IGF1R ectodomain amine coupled on CM5 chip; VHHs in flow at 40 µL/min, 180 s association, 600 s dissociation; 0.25-10 nM (IGF1R5), 1-25 nM (IGF1R5-H2); HBS-EP pH 7.4, 25 °C; 1:1 binding model; settings: both partners purified
T1 construct: insulin-like growth factor-1 receptor, rhesus, ectodomain, aa31-932; source: NRC Montreal
T1 sequence (I2CWY3 entry or part of it): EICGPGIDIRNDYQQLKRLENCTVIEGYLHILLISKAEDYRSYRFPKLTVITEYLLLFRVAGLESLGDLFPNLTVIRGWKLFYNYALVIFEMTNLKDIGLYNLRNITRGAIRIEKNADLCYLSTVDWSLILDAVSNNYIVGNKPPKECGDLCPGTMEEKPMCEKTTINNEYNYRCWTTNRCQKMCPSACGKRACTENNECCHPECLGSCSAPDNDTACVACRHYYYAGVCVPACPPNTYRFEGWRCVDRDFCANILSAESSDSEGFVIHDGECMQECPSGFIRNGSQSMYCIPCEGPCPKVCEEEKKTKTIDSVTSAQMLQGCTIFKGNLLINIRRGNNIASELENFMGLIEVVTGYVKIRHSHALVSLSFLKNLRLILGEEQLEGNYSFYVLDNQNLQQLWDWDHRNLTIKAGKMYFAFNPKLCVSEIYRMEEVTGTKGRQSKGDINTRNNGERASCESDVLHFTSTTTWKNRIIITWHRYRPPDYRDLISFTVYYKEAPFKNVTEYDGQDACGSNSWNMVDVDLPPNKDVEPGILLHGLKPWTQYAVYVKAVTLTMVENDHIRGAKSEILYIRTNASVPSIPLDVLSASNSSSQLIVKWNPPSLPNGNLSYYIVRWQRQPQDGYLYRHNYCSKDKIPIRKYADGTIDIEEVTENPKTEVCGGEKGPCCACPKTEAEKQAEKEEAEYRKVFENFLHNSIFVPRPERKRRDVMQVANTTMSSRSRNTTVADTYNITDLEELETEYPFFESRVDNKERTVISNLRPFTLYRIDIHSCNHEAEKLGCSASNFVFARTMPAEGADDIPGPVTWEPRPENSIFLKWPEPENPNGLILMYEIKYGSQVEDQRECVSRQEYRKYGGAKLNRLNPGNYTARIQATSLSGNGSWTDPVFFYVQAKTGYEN

[6] = target: T2, rat IGF1R ectodomain (aa31-936) (Rattus norvegicus, UniProt P24062); experiment: SPR; Biacore 3000, multi-cycle kinetics; IGF1R ectodomains amine coupled on CM5 chips (about 1500-2000 RU); VHHs in flow at 20 µL/min, 300 s association, 300 s dissociation; 0.25-10 nM (IGF1R5), 1-25 nM (IGF1R5-H2); HBS-EP pH 7.4, 25 °C; 1:1 binding model; settings: both partners purified
T2 construct: insulin-like growth factor-1 receptor, rat, ectodomain, aa31-936; source: NRC Montreal
T2 sequence (P24062 31-936): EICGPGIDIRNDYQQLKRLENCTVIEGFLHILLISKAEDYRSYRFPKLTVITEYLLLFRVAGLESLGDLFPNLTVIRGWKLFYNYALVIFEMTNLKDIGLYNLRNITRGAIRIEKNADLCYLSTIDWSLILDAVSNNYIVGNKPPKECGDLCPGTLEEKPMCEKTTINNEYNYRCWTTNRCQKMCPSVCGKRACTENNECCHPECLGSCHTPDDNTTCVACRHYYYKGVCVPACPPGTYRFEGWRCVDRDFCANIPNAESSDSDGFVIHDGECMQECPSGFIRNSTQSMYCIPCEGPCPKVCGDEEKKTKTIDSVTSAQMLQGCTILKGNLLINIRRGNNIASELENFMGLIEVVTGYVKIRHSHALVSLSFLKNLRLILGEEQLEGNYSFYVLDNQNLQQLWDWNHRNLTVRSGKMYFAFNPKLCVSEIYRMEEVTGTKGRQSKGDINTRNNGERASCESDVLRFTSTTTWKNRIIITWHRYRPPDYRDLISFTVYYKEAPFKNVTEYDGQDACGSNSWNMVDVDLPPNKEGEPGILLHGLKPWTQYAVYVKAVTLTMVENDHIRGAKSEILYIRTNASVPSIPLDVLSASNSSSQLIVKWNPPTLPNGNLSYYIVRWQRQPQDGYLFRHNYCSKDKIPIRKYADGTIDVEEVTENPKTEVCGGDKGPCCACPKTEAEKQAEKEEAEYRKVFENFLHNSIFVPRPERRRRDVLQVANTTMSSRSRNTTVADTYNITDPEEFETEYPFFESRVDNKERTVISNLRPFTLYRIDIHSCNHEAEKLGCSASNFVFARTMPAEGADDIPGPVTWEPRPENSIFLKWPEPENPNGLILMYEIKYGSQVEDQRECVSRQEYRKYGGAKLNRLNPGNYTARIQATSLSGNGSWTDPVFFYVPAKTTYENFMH

Chain of Human IGF1R ectodomain (P08069 741-935): as the sequence (Q60751 742-936) above, with V19A, F31L, P185Q, T189G, M194I counted along it

Row | Binder | Kd (Human IGF1R ectodomain [1]) [nM] | koff (Human IGF1R ectodomain [1]) [s⁻¹] | kon (Human IGF1R ectodomain [1]) [M⁻¹ s⁻¹] | Kd [2] [nM] | koff [2] [s⁻¹] | kon [2] [M⁻¹ s⁻¹] | Kd (Human IGF1R ectodomain [3]) [nM] | koff (Human IGF1R ectodomain [3]) [s⁻¹] | kon (Human IGF1R ectodomain [3]) [M⁻¹ s⁻¹] | Kd [4] [nM] | koff [4] [s⁻¹] | kon [4] [M⁻¹ s⁻¹] | Kd [5] [nM] | koff [5] [s⁻¹] | kon [5] [M⁻¹ s⁻¹] | Kd [6] [nM] | koff [6] [s⁻¹] | kon [6] [M⁻¹ s⁻¹]
1 | IGF1R5-H2, humanized variant of the IGF1R5 single-domain antibody (VHH, CDRs of m1 grafted on a human VH3 germline framework, 4 back-mutations in the Vernier zone, no camelizing back-mutations in FR2, CDR2 point mutation A57T; Kabat numbering; Changes are stated against the camelid IGF1R5; also called humanized IGF1R5-H2; source: produced and purified as described for the llama sdAbs (TG1 Escherichia coli, HiTrap Chelating HP; preparative SEC just before SPR)) VHH: QVQLVESGGGLVQPGGSLRLSCAASGRTIDNYAMAWVRQAPGKGLEWVATIDWGDGGTRYANSVKGRFTISRDNSKNTMYLQMNSLRAEDTAVYYCAMARQSRVNLDVARYDYWGQGTLVTVSS | 160 | 0.034 | 210000 | 150 | 0.043 | 290000 | 7.6 | 0.0029 | 380000 | 9.1 | 0.0021 | 230000 | 17 | 0.0038 | 230000 | 11 | 0.0026 | 230000
2 | IGF1R5 single-domain antibody (camelid VHH against insulin-like growth factor-1 receptor) (VHH, Monomeric VHH fraction isolated by SEC was used for SPR; Isolated from a phage display library of a llama immunized with the extracellular domain of human IGF1R (933 amino acids); also called wild-type IGF1R5; IGF1R5 sdAb; source: TG1 Escherichia coli, purified (HiTrap Chelating HP; preparative SEC on Superdex S75 Increase just before SPR)) VHH: QVKLEESGGGLVQAGGSLRLSCAASGRTIDNYAMAWSRQAPGKDREFVATIDWGDGGARYANSVKGRFTISRDNAKGTMYLQMNNLEPEDTAVYSCAMARQSRVNLDVARYDYWGQGTQVTVSS | 4 | 0.0028 | 690000 | 4.8 | 0.0028 | 590000 | 0.64 | 0.00034 | 530000 | 1.1 | 0.0003 | 260000 | 0.4 | 0.00059 | 1.5e+06 | 1.1 | 0.00038 | 340000
